Bounds are passed on as bounds.

This series in a line: soluble fraction after stress (log2 fold change); higher = more stays soluble; pooled small domains, quantitative proteomics. The conditions noted are these: stress: pH 4. The procedure, abridged: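 Aggregation propensity here comes from the fold change in the soluble amount of each small protein domain after acid stress, measured in pooled custom libraries by high-throughput quantitative proteomics. The acid stress was pH 4. On the log2 scale, higher values mean more of the domain stayed soluble.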
On to “HMNEFGIPDKKLQDIETRVNSMSLEQLNAARSMLIDEQEALNSSTGSASSGRLKEIAAELSTIQKALIAIA”, for which the “soluble fraction (log2)” value is -0.0513.

As to “HMNEFNEVVPDSLEGERLDRLLAFIGNISRSEASNIIKGGEVLINGKVVTRPSFKVTLGNRVEFSIRD”, the “soluble fraction (log2)” value is -0.19.

Regarding “HMNEGETLYRLRAGDGRARLDKFLAAALPDISRTRFKGLIESGHVRVGGETITEPAYRVKSEAEVELTVPE”, the “soluble fraction (log2)” value was found to be 0.0187.

“HMNEIALETAIEDVESFIQMQNRNLAFSIDEDTDRAVVTVRDSDSGDVIRQIPSEEVLALAERIQDLQQD”: the “soluble fraction (log2)” value is -0.485.

With “HMNEIDDYDIQLLEYLSKGVSQEAMESVFKQAGITPNSKSTIEKRISKLKIYFKALNTTHLVSITKDLGL”, the “soluble fraction (log2)” value is -1.27.

For the sequence “HMNEKEAEEAAEAQTEVPDVTGMAPAQAKNMLYQAGLSSEYRGEGETVSRQLPPAGETVNRGTKAVLYL”, the “soluble fraction (log2)” value worked out at 0.2.

With “HMNEKGTNSTINEITRISKPGRRVYVGSAEIPKVKSGRGLVLISTSKGVMTGAEAAKAKLGGELLLKV”, the “soluble fraction (log2)” value is 0.129.

In the case of “HMNEKMKEIGLRIKELRELSDISAQGMADHLKIPLETYQEYEDGKKDIPASILFEISQKMEVDMGLLLTGE”, the “soluble fraction (log2)” value is -0.253.

As for “HMNELTDKQILLFSNKLAHNIPFSSKYSKPGESYEEFAERLANELIDPQKVKLYKPYLEEVGFK”, the “soluble fraction (log2)” value was 0.112.

Take “HMNEMIFNQKKIGQFFMNPETNSPMIYPLELGHKMKIIELKNGWYNVTDEKTGLNGWVKEEDFGVTKPLDS”: the “soluble fraction (log2)” value was found to be 0.0629.

Turning to “HMNENDENLRQQAIDASKEVRRWGEPVTLPPMNAHDRRIIHITLEGESDLQTESTGEGNFKSVVISLK”, the “soluble fraction (log2)” value came to 0.0645.

“HMNEPSSYGYAISVALDRNGLGTVKGGTLYPLLARLEQAAHVETRWEAGDGGPGRKYYTITDSGRS”: the “soluble fraction (log2)” value was -0.41.

Take “HMNERLKQLRLSLNLNQEEFGKWLGISKSGVSDIESGRRKVTEQHIIMLSNHNISEKWLRTGEGEMFV”: the “soluble fraction (log2)” value was 0.0158.

“HMNETNKMPNLVNQTDSSAIAQLNAMELGLKITTKEESSETVLAGYVIRTEPAADTELTKNQAVTVYVS”: the “soluble fraction (log2)” value was 0.0693.

For the sequence “HMNETTVPDVINQNISTGKIIIEDADLEYRIQYIPSEKSSSIGTIINSIPIYGKRVKSGTIVDLKVLG”, the “soluble fraction (log2)” value is -0.34.

As to “HMNETVTNQTVLDLLKEGFTSEEIIGAIENSSTRTITYDINFMRQLKAAGADVTLTTYLQKIAKKDM”, the “soluble fraction (log2)” value was -0.711.

Turning to “HMNEWSIDINLADEKQWTAKTKLSPAIIQNIIRYKNYLGGFTNLNQIKKVYGFTEANYYLLKPHLQLGK”, the “soluble fraction (log2)” value was -0.386.

On to “HMNFDLDSFKQRMTLDGLYFGNEKQDVIALNNLSERYQLTWFDVYQLAKETSSNHKILPKRILVKLQQ”, for which the “soluble fraction (log2)” value came out at 0.158.

As for “HMNFEIEVTENGKRIDSYLAEELDLSRSKVQKLIKQELVTVNGKVVSNNYNVKLGDTILVNDD”, the “soluble fraction (log2)” value was 0.154.

Take “HMNFFQEIGNSILIELNKKNWTQSMFAHKIGVSDEVFKQIVQGKKALNAVEIAKIANTLDVDPEKLLRK”: the “soluble fraction (log2)” value was -0.0391.

Regarding “HMNFTEAEQRFHFLEDQRQRGVLSLEQYRAELAQLRVTDAWGRLWMLQEQTGQWFVFHEGQWRPSQ”, the “soluble fraction (log2)” value is -0.266.

Consider “HMNGEDVTDAIRLPQISQYASVVSAYPGVRAFLLEMQRDFARKGSVIMDGRDIGTVVLPEAEVKIFLT”, for which the “soluble fraction (log2)” value was found to be 0.278.

Consider “HMNGGPHYLRDVRTSLGLSQADLAKAVGTSANMIHYLESGERALTLKWIRRISEALNVSPMRLIN”, for which the “soluble fraction (log2)” value was -0.0552.

Turning to “HMNGLPDLSRYTGVSIVDGLASVGSDSSFAYRAKIAETLGISDYKGSAGQNLEMIRKLGGKV”, the “soluble fraction (log2)” value is -0.172.

“HMNGTGSVYKLSGKRRNPWRAVVTNGWAYNEEKGKLVQNRVTIGYYHTRDEAIQAIANYNSSP”: the “soluble fraction (log2)” value was -0.125.

On to “HMNGVFIMHTPDGKVLRTEEGEEAVITLFNWSGQLLWSKTSLGQLPLPEGTQGVLQVQYKSGDQHTIKT”, for which the “soluble fraction (log2)” value is -0.425.

As to “HMNHAPSLMRKIRRGLKEGRNPDDLLVNAKSISDYYYRSLSFYLLAPHFSSKSKQYKQVISLANS”, the “soluble fraction (log2)” value is -0.151.

For “HMNHHTEQQLKALSNKVKDHRMRMRLLAVAHFKAGKNKADVARTLNVSRRMVNEWVANYFKGGVSALES”, the “soluble fraction (log2)” value is -0.047.

With “HMNHLLYPNPANNFIWIKNSTSNTAVIYNLQGVMSKVEVSEEGKIDISRFSPGLYMIKQGERIYKFTIA”, the “soluble fraction (log2)” value was -0.358.

On to “HMNHLSYEQRLKIKEMLDGGFKKIDIARALGVHNATIYREIERGSVNGIYNPNKSEEQYRDHLSEK”, for which the “soluble fraction (log2)” value is 0.0704.

For the sequence “HMNHYIGVDRAKEIALNHANLSETDVVFTKEKLENDDGGAEYEIEFHSGRTEYDYTIDAASGNIIEYDVDY”, the “soluble fraction (log2)” value is -0.17.

Regarding “HMNIDGLIGKKALVTADIDNVNSKGQIKINGLEWTARSVDDEPIPMGTEVEITAISGVKAIVRKG”, the “soluble fraction (log2)” value is 0.309.

Turning to “HMNIEANLEDILRRAMPSAAKLILENSLNINKIIGTGKEGRITKGDVLLYLKDKNLILENILN”, the “soluble fraction (log2)” value was determined as 0.0861.

For “HMNIEEAESILKEIKTVLTDKEYEVYTLRAKGFTYQEIASLLNTTTKSVDGALSRIKTKINNIK”, the “soluble fraction (log2)” value was 0.0204.

Regarding “HMNIFKLYEENIGPLTPMIADILKEDEAEFPDYWIREAIEIAVKKNARNWKYVHAVLESWQKE”, the “soluble fraction (log2)” value is -0.259.

For “HMNILKAPMPGLILDVIVKESDLVKKGDPVIILEAMKMENILSSPVDGIVKEIKVNPQQTVEKNNTLIKFE”, the “soluble fraction (log2)” value is -0.469.

Turning to “HMNILNFSENIIKLRHKKGITQEELADFVGVTKASVSKWETKQSLPDIMLLPRLAAYFDVTVDELLGYEP”, the “soluble fraction (log2)” value was -0.115.

On to “HMNINHEINIKSKKKISILENNPNLSQFYLTKNPDQYNYNLVFSDKSELNKLKEKLESDNEVEDIDIRYG”, for which the “soluble fraction (log2)” value was -0.195.

On to “HMNINTEMEKVSYSLGVNIASSLKQQGWELDAKSLSDAFVDVFNGNKLLIDEKEASSILQNYQQKIANK”, for which the “soluble fraction (log2)” value is -1.1.

Regarding “HMNIQKYFAGREQFIELLEAVGIRTLEQFASADPSTVLPELHQAKRMLKLQTEIPSAPVFREWVNQALS”, the “soluble fraction (log2)” value is -0.901.

With “HMNIQPAMLNAANGGVAWKERGISMSQIMKRNAHTAEGSQKLWDYAFENFFQKNIDAGNIRDDR”, the “soluble fraction (log2)” value is -0.237.

Take “HMNIVKGDTTANVRVVQQRLYNLGYYTYKVDGIWGTRTKTAVKKFQKDKGLVADGIVGAKTEKALGITLT”: the “soluble fraction (log2)” value is -0.252.

“HMNIVVSSIDSNSFEIVNKETGEQAVISYDKETKKGFVLINGVKKEFFQDGNKVYYDGYVIAE”: the “soluble fraction (log2)” value is -0.466.

For “HMNKDEFLNELKSYLSILEDEEQADILEEYTQHIDMKISTGLSEAEAIRDFGNVSELAAQILEAY”, the “soluble fraction (log2)” value is -0.343.

For “HMNKIGTIVSINGPIVKTAGDVGFVMHEMVYVGKEKLVGEVIGLTTDFTIVEVYEETSGIKPGETIEGT”, the “soluble fraction (log2)” value is 0.00293.

As for “HMNKKEIISVLEKIIPPSQIKNINIFGSELVIDLNIDNPSLHAKKKLEKSIMSSFDENLKIIVNFSVE”, the “soluble fraction (log2)” value came out at 0.22.

As for “HMNKLSISALAETVSTKRKEKSMTQQDLSDATGINRALISRLEQKDFIPSIPQLEKLEEILGFELEEVF”, the “soluble fraction (log2)” value is -0.998.

For the sequence “HMNKMHKLPSVSEILNKVRLQKIHNESFIKFKIKEEIDRYRKLAKKDQLFLSRDEITYEIIEKLLNFSMPS”, the “soluble fraction (log2)” value was -0.771.

For “HMNKMIDAPDLTGLSLEDAKLVLEANKLQLGTVSHEPSDKPEDVVISQDPMEGQEIQQGGKVNLVVSYGD”, the “soluble fraction (log2)” value is -0.104.

For the sequence “HMNKNNLRNVSSKIRKSRRVLNLSQAELSKKLDISPSYLNLIESGKRPITVPLLIKLGNILGISLKDL”, the “soluble fraction (log2)” value came to 0.201.

“HMNKNQIGTNAGIVWKLLSDNVHWEYDKLKHASGLSDRDLNAAIGWLAREDKIDFDIDEQHDRLFL”: the “soluble fraction (log2)” value was -0.255.

Regarding “HMNKPKIIINSVDDSVFSDYVKDSLSIAEVARSIGIDNNKINTSVYREIHKRIDSLKLDTSHFTGGAWN”, the “soluble fraction (log2)” value is -0.634.

As to “HMNKPLFVYPNPVHQGKINLSKATNFMVVDLLGQTVNKTNYGKDFSIDNLPNGVYFIKTTEGEIIKFMK”, the “soluble fraction (log2)” value was -0.496.

As to “HMNKQEFLNTLRIIFKKANVLDVESIIDVYEEHFAVGYEKGLNDEQIIKSLGTPKEIYTSYVEAGI”, the “soluble fraction (log2)” value was -1.16.

With “HMNKSGVVLIRVTVDASGRVTSAAYEPKGSTTSDVELVAEARKAALRTRFTESRTVIEGGVITYIFKL”, the “soluble fraction (log2)” value was -0.0968.

As to “HMNKSYTVPDVRGMTVEEAQEAEGVKDIFTVHVQGTRKTDEYQPGQIVEQDPIAGRTRKSNFVIEVYVAE”, the “soluble fraction (log2)” value was -0.237.

As to “HMNKTQLQIEDEVLKPLIAEIFSKSKGRFGARKIRSKLMGLGYTASERRILRLMKELGLSSAG”, the “soluble fraction (log2)” value was ≥ 0.43.

As for “HMNKTVKIPNVSNLSREDAESVLKENGISVNSEVKQIESDTIEKGKVVKTDPSIGTSVKKGRSITIYVSSG”, the “soluble fraction (log2)” value worked out at 0.134.

Turning to “HMNKWMQLASEEDKKLFNEAPKEIQDSITESAKFFDIRTKADVDTFWANTGLRQMKQQAMLNESFVNEY”, the “soluble fraction (log2)” value is -0.482.

Take “HMNLDMVINKIGIVTEDIKQDKIGEVKVLGKRWSAYSNTELKKDEKVKILSIDGVKLKVEKI”: the “soluble fraction (log2)” value is 0.413.

Take “HMNLGAHVYWRNHRAYGDFREYEDVGGGREALALPGSTWGTKDPRVAQALFAARLTEFQEARVGR”: the “soluble fraction (log2)” value is -0.148.

As to “HMNLGVIYSLKAEVRSEPNTFSTRLFEVHEGLKVSINQLENDWVEIELLDGKTGWISNDQIRLI”, the “soluble fraction (log2)” value was -0.772.

Turning to “HMNLIFFSENLSTFRKEKGWTQSELAEKLGVKANTISNYEKGISTPDYKIIAKLRELFEMPTDVLLYSNLS”, the “soluble fraction (log2)” value is -0.97.

“HMNLLDYDFFEKMSSKEQEEIVEKVYIDFLNKSTGTNSPFYLKLFEKGKKSYIVNWLNENNF”: the “soluble fraction (log2)” value was -1.06.

With “HMNLLSPREKQSLTLYASGLTLREVASELKLSPNSVGKFISRGKFKLNKSGAIVNSKTSIYLELKKRNLI”, the “soluble fraction (log2)” value stood at 0.108.

Turning to “HMNLNESVELGQELLSQALAQLGIRGELSPSTIDKLLAESSAKSMEELYADIGIGKRMPALVARHIFGLMD”, the “soluble fraction (log2)” value is -0.491.

Consider “HMNLQAYQSVLDKLNEEYGTTFRFPTEEELHEVGLTNTVDPRTATVSATEFEKYMRPIAERISQANL”, for which the “soluble fraction (log2)” value is -0.315.

As for “HMNLSAREWTSADGSRTFQGELTGFQDGKVKVRRSDGKSLVFAIELLSESDQQFIKTNQLVIAKKDED”, the “soluble fraction (log2)” value is -0.752.

With “HMNLYHALDQQGEVYLTIPPRQSGRGKVTLMIDGRVREMDAMTDGDALKTGSKVRVTEILDENALKVEAM”, the “soluble fraction (log2)” value is -0.0493.

The values are drawn from the domain aggregation screens of Martell et al. (2025).
